Results taken from publication PMC12510028, “A biophysical and molecular characterization of the interaction between the Alzheimer risk factor BIN1 and the neuronal scaffold protein p140Cap” (The Journal of Biological Chemistry, 2025).

Test system: p140Cap
Assay: GST pull-down from mouse brain homogenate, p140Cap captured
Type: binding
Conditions: percent pulldown relative to input, two independent experiments, unpaired t test p = 0.0035
Protocol: For these experiments, we prepared glutathione S-transferase (GST) control and GST-tagged BIN1-SH3 domain fusion proteins coupled to glutathione-Sepharose and incubated them with mouse brain homogenates to capture bound proteins. Western blot analysis confirmed that p140Cap from the brain extract bound specifically to the BIN1-SH3 fusion protein, but not to the GST control (Fig. 7A).
To further investigate the contributions of electrostatic interactions in BIN1 SH3 domain–mediated protein binding, we conducted GST pull-down assays with mutant BIN1 SH3 domain constructs that lacked charged residues. […]
We used a previously published method with some modifications ([22]). […] The samples were analyzed by immunoblotting with antibodies against total tau (Dako #A0024; 1:1000) and p140Cap (Defilippi’s lab mAb; 1:2000) ([44]). After incubation with infrared dye–conjugated secondary antibodies, signals were recorded using the Odyssey infrared imaging system (LI-COR Biosciences) and quantified with ImageStudio6.0. The % GST pulldown was calculated by comparing signal intensities of p140Cap or tau in the input (10 μg) with the corresponding pull-down signal intensity from 0.5 mg protein and then multiplying by 100.

B1: BIN1-SH3 fusion protein: GST-tagged WT human BIN1-SH3 domain fusion protein coupled to glutathione-Sepharose (protein)
chain: GFMFKVQAQHDYTATDTDELQLKAGDVVLVIPFQNPEEQDEGWLMGVKESDWNQHKELEKCRGVFPENFTERVP
modifications: left off: 6xHis, N-terminal, state not stated | GST, N-terminal, kept
notes: GST-tagged WT human BIN1-SH3 domain fusion protein coupled to glutathione-Sepharose
Which “fold more p140Cap captured than tau” value does the source give for B1 here?
Its value is ~9.4 fold.
